Measurements published in a protein production outcome set (Wang et al. 2014).

Assay: label from the status in PepcDB records

| Sequence | protein production |
| --- | --- |
| MILPPAFHAALLSGGNGRESKLPWVALGLAWLLAVLALLGPSWQRVEQTSQKPADPLVVLLELTPQMLANDVPPDRLEQARHKLLDLLQLRSDAQTAIVVYAGSAHTLVPLSDDLATSRNLLDALKPSIMPQAGQRADLALLKALKLLDQGALGQGRVLLMASSLNEEERQGIRQALKGDAPQLLMLGFGSRDGAPVAQEDGSYLKDDQGAILVSRLDSPDLKHFIGDVGGRYRQARLDDSDLRGLGLLGGPQGLRSDGQTLRLDTWADQGYWLLLPLLLLAACAGRRGWLFCLPLLLFAVPQPSYAFDFNDLWLRPDQQGQRLLQQQRPAEAARHFQDPQWQGVALYEAGNYTAAAERFAEGNDARAHYNRGNALARSGELEAAIDAYEQALERQPDLQPALQNKALVESLLQQQQAQTQTPPPAKKPDTPEGDDTRPGPSGAATQPPPGSNGPQDPAQAPANEGDTPPPDPQAAGHSEVPGSELDDQHTTTPLRPVEDSLDAEHQQALEQWLRKIPDDPGELLRRKFWYEQQQHQDQGKTR | failed |
| MILQNKTFDLNPNDIAGLELVCQTLRNRILEVVSANGGHLSSSLGAVELIVGMHALFDCQKNPFIFDTSHQAYAHKLLTGRFESFSTLRQFKGLSGFTKPSESAYDYFIAGHSSTSVSIGVGVAKAFCLKQALGMPIALLGDGSISAGIFYEALNELGDRKYPMIMILNDNEMSISTPIGALSKALSQLMKGPFYQSFRSKVKKILSTLPESVNYLASRFEESFKLITPGVFFEELGINYIGPINGHDLSAIIETLKLAKELKEPVLIHAQTLKGKGYKIAEGRYEKWHGVGPFDLDTGLSKKSKSAILSPTEAYSNTLLELAKKDEKIVGVTAAMPSGTGLDKLIDAYPLRFFDVAIAEQHALTSSSAMAKEGFKPFVSIYSTFLQRAYDSIVHDACISSLPIKLAIDRAGIVGEDGETHQGLLDVSYLRSIPNMVIFAPRDNETLKNAVRFANEHDSSPCAFRYPRGSFALKEGVFEPSGFVLGQSELLKKEGEILLIGYGNGVGRAHLVQLALKEKNIECALLDLRFLKPLDPNLSAIVAPYQKLYVFSDNYKLGGVASAILEFLSEQNILKPVKSFEIIDEFIMHGNTALVEKSLGLDTESLTDAILKDLGQER | failed |
| MILSRYIARRFLRMVFIVFLAFFGLMMLIDVLDQMRRFSDEGITLVQAGLLSLLRVPATLYTILPLIVILAAVALFLGLARSSELVVVRAAGRSGLRFLVAPMVVALALGTVAVTVLNPIVAGTSRQYDAAAGRLARGEASILSISKEGLWLRQGGSGEQTVIHALRSNTDGTRLYAVTFLTFDAEGRPTGRIAAEQAALERGYWQLSGAKSWDLTEANPEARAGLPGNLRVTSELTREGIQDSFGDPSAIPIWELPAYVAGLERAGFSARKHRVWMQMEFALPATLAAMVLVAAGFTMRHSRFGGTGRMVLLALLGGFSLFFLRNFAQVLGENGQIPILLAAWSPPLIGVMGSLGLLLHLEDG | failed |
| MILVTGFEPFGSLEHNPSQALLDLLPSEVDGKPLRKAVLPVDAEALGEALEDLHREGPKAVLHLGLAEDRPVLTLERLAVNLLDFPRPDNRGRVLEDLPIVPGGPLALPARFPVKPVLARWREAGIPGRPSLSAGSYLCNQAFYLSLYRLPEEVPVGFLHLPPDETLALKRPRPYVPLEVQARAVRLALEHL | not failed |
| MIMFNYQQTSQSCVKCGKCIPSCTIYNIHPDEVTSPRGFIDLLGAYQRGELELDKNAKDIFEKCFLCTNCTYVCPNLLPTDQVIENVRAEIAQKFGIAWFKRAYFFLLRNRWLEHHHHHH | failed |
| MIMMESGKLDLDRTKEGVKKYWDYGSKFYDTAPGLGGNEESQIWKKLLSSSIGPDLKNILDVGSGTGIIAMYLAELGYGVTAVDFSEGMMDIARKKALEKGAKIRFMEGDIENLSFEDETFDCVTARYVLWTLPHPEKALKEWVRVVKPGGRIVIIDGKWVTRGLLPRISAMNYHIYRFIKYGKNPFTYDYRKEVSVGLPNPHGVEKKQIMEYVSKAGLTDIVVTDLKIIRDIQRKKLPWYLKYANDHPIFMVRGTVAKKG | failed |
| MIMMKRYKKILLTGVLSALSCSFVHAQELYKNENAPVHERVMDLISRLTVEEKISLLRATSPGIPRLGIDKYYHGNEALHGVVRPGRFTVFPQAIGLAATWNPELQKRVATVISDEARARWNELDQGREQKEQFSDVLTFWSPTVNMARDPRWGRTPETYGEDPFLSGIMGTAFVNGLQGDDPHYLKIVSTPKHFAANNEEHNRFVCNPQISEKQLREYYFPAFEMCVKEGKAASIMSAYNALNDVPCTLNPWLLQKVLRQDWGFQGYVVSDCGGPALLVNAHKYVKTKEAAATLSIKAGLDLECGDDVYDGPLLNAYKQYMVSDADIDSAAYHVLTARMKLGLFDSGERNPYTKISPSVIGSKEHQQIALDAARQCVVLLKNQKNRLPLNADKLKSIAVVGINAGKCEFGDYSGAPVVEPVSILQGIRNRVGDRVKVVYAPWKSAADGLELIQGENFPEGLQAEYFDNTRLEGTPRVRKESWINFEPANQAPDPFLPKSPLSVRWTGKLKPTVSGRYTFSFTSDDGCRLSINNQMLIDAWQAHAVSTDSASIYLEAGKEYQLKAEYYDNRDYAIAKLQWKVPQIGKATRLDLYGEAGKAVRECETVVAVMGINKSIEREGQDRYDIQLPADQREFLQEIYKVNPNIIVVLVAGSSLAINWMDEHIPAIVNAWYPGEQGGTAVAEVLFGDYNPAGRLPLTYYKSLDELPPFDDYDITKGRTYKYFKGDVLYPFGYGLSYSSFTYSDLQVKDGGGEVTVSFRLKNTGKRNGDEVAQVYVRIPETGGIVPLKELKGFRRVPLKSGESRRVEIKLDKEQLRYWDVEKGQFVVPKGAFDVMVGASSKDIRLQTVIDL | failed |
| MIMRQLAHFKFFDTLSKKMVAGFIILILIGTVLLSLPWATPANVHTSLIDVLFTSASATCITGLTVVNTAAHWTTFGQLVILVLSEVGALGYMTFAVLLFNIMRRQIGLSTQLMVKASLNLERLSDTKSVMKYVVGLSLLFQLGGLGLLAIDFVPRFGWRHGLYVSLYHAVMSFCNAGFDVFGDSLQGFRNDPYVLTVTMILIIAGGLGFLVWRDVLLYHTRKRLTLNSKLTLLTTFSLFVIGFVLLLITERDLELLPTGMSWVNRTINTLFLSVTPRTAGLITMPTQGLQAGSLLVIMILMFVGGTPGSTAGGIKTTTFGVLMFQSIAQLRGRRDVEFSHRRFSQENINRALMLIFLASIVLTVATLILTQTEKIPKGFGLEYVLFEVLSAFGTVGLSLGLTPNLTLIGKIVIMMLMFIGRVGIFTSLYALSRRQARVNLIRYPAENILIG | failed |
| MIMTVLRQQPRAAGLVLGLIAANFLAWCWALQAFGDSGALMAASLLAWGYGLRHAVDADHIAAIDNVTRKMMQQGRRPFAVGAWFSLGHSSIVVLASAAIAATATAFSTQMSWLHDTGSVIGTAVSALFLLAMAFINLVILRSVWRSFRAWKRGEPVSDEIVSGGGVMSWLFGKTFRLISRSWQMYLVGFLFGLGFDTATEIGVLGISAAGASSGISVWSIMVFPALFASGMALVDTLDNVLMVGAYGWAFSKPQRKLYYNMTITGTSVVVALFIGGLEALGLLMDKFALSGGIWRWVGALNDNLGDAGFVVVGLFVACWALSVLNYRWRGYDNLAR | failed |
| MINDIKILGVGGSPRKNGNTDVLLDSFLKGAESAGVETKKVLLRDYSIEPCIGCERCRKTGTCTRFHDGMSLLYPEIEAAKGLTLGSPTYNYNVTALMKAFIDRLYPYYNFTNVRPRRYSSKLAGQGRKAIVFSVCEQLEIEEMGFTLGALGMPLEALGYEIVEKFPVTGYFDRGAVSRDEELLRKTFEAGKKMAEALHLEHHHHHH | failed |
| MINFEATELRLGLPGGNHGGEMAGKNNGKRGFSETVDLKLNLSSTAMDSVSKVDLENMKEKVVKPPAKAQVVGWPPVRSFRKNVMSGQKPTTGDATEGNDKTSGSSGATSSASACATVAYVKVSMDGAPYLRKIDLKLYKTYQDLSNALSKMFSSFTIGNYGPQGMKDFMNESKLIDLLNGSDYVPTYEDKDGDWMLVGDVPWEMFVDSCKRIRIMKGSEAIGLAPRALEKCKNRS | failed |
